Patent publication US20100160262

Target: enzymatically [3H] acetylated histone H3 peptide (amino acids 1-24) (UniProt P68431)

For human SIRT2 with a C-terminal FLAG tag, the “standard histone deacetylase assay (radioactive, H3 peptide substrate)” value was “These enzymes also deacetylate histones as determined in a standard histone deacetylase assay”.
